The values below come from paper PMC7969031.

Data set [1] deals with Cas4 of the Synechocystis sp. PCC6803 type I-D CRISPR-Cas system, untagged (Synechocystis sp. PCC6803). Description: SEC-MALS. (In gel filtration, larger molecules generally elute earlier.)
The target of data set [2] is Cas1 of the Synechocystis sp. PCC6803 type I-D CRISPR-Cas system, untagged (Synechocystis sp. PCC6803). The data set is described as follows: crystal structure.
Data set [3] has the same target. The data set is described as follows: negative-stain electron microscopy.
The target in data set [4] is Cas2 of the Synechocystis sp. PCC6803 type I-D CRISPR-Cas system, untagged (Synechocystis sp. PCC6803). The data set is described as follows: crystal structure.
Data set [5] addresses T1, Cas1 (type I-D);Cas2 (type I-D) (Synechocystis sp. PCC6803;Synechocystis …, UniProt Q6ZEI2;Q6ZEI1 1-325;1-94, |).
T1 sequence 1: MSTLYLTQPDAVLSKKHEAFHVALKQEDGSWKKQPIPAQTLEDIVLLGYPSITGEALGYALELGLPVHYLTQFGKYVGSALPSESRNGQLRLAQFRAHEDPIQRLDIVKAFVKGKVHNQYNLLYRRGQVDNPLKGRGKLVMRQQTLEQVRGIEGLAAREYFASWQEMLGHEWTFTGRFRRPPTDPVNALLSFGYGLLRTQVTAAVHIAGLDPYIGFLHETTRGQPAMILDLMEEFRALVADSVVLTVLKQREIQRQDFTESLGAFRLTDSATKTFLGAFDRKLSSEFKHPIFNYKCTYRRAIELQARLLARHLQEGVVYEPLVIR
T1 sequence 2: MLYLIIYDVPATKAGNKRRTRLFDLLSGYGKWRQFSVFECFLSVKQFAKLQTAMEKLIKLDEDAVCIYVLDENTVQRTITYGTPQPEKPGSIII
Description: X-ray crystal structure.

The next data set has as its target T2, Cas1 (type I-D) (Synechocystis sp. PCC6803, UniProt Q6ZEI2 1-325).
T2 sequence: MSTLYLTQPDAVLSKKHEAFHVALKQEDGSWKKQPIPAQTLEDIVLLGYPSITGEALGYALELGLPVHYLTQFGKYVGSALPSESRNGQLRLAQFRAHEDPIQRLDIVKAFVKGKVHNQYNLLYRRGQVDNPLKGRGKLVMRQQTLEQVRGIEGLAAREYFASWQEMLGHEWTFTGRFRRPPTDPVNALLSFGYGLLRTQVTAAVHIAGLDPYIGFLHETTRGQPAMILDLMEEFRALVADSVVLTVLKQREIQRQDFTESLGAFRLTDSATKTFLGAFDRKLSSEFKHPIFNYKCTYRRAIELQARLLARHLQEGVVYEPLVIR
Description: EMSA. A general note: A gel shift assay detects complexes by their altered migration in electrophoresis.

For data set [6], the target named is T1, Cas1 (type I-D);Cas2 (type I-D). The data set is described as follows: EMSA.
For data set [7] the target is unchanged. Description: X-ray crystal structure. This is another data set of the same source.

The term stoichiometry N denotes the number of molecules, sites or subunits per partner or assembly. Molecule “Cas1 of the Synechocystis sp. PCC6803 type I-D CRISPR-Cas system, untagged (natural protein)” had a stoichiometry N (Cas1 per Cas4) in data set [1] of 2. Also, the stoichiometry N in data set [2] and in data set [3] was 2 in each case. Take “Cas2 of the Synechocystis sp. PCC6803 type I-D CRISPR-Cas system, untagged (natural protein)”: in data set [4], the stoichiometry N is 2.

B1: 26-5-5 double-forked prespacer (dsDNA)
DNA 1: TTTTTTTGTGCCCCTGGCGGTCGCTTTCAAGTTTTT
DNA 2: TTTTTCTTGAAAGCGACCGCCAGGGGCACAATTTTT
For the molecule B1, the binding result in data set [5] was “binds”.

B2: dsDNA EMSA substrate (dsDNA)
DNA 1: TGTGCCCCTGGCGGTCGCTTTCTTTTT
DNA 2: AAAAAGAAAGCGACCGCCAGGGGCACA
Take B2: the binding result (with Cas1 (type I-D); in data set [6]) was “binds” each time.

B3: 22-7-7 double-forked prespacer (dsDNA)
DNA 1: TTTTTTTTGTGCCCCTGGCGGTCGCTTTCTTTTTTT
DNA 2: TTTTTTTGAAAGCGACCGCCAGGGGCACATTTTTTT
For the molecule B3, the binding result in data set [7] is “binds”.
